1 substance from patent US20060292689A1 can be followed below.

This test has as its target CCR-2 (human) (UniProt P41597). Kind of test: cell-based or functional assay.

CCR-2 (human), sequence (P41597 whole entry): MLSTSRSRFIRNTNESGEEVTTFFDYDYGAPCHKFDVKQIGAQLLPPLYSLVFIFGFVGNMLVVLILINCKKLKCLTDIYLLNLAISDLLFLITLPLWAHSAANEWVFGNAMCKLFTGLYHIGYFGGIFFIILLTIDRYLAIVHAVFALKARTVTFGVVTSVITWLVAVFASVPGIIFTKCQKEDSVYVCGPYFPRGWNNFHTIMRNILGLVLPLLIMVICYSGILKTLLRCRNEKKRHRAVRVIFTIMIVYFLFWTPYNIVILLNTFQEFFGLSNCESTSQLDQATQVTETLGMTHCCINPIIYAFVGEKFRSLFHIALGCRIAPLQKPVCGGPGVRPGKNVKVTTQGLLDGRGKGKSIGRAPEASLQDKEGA

Take “MCP-1 (from UniProt P13500 24-99) (ligand)”: the mean fluorescence intensity of CaR expression on monocytes was determined as 673 units.
